{
  "source": "the RNAGym collection of RNA variant scans (doi:10.1073/pnas.2313332121)",
  "parents": {"B1": {"name": "TPR t1 (parent)", "chain": "GACCAAUCUGCCCUCAGAGCUCGAGAACAUCUUCGGAUGCAGAGGAGGCAGGCUUCGGUGGCGCGAUAGCGCCAACGUCCUCAACCUCCAAUGCAUCCCACCACAUGAUGAUGCCUGAAGAGCCUUGGUUUUUUG"}},
  "data": [
    {"variants_of": "B1", "assay": "polymerase ribozyme fitness, log enrichment relative to wild type (log ratio); higher = more active; in vitro selection for triplet polymerase activity", "how_it_was_run": "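To select mutant libraries of each subunit of a heterodimeric triplet polymerase ribozyme, built by PCR and transcribed, each was annealed with a biotinylated primer, partner subunit and triplets, then incubated frozen at −7 °C. Extended constructs were gel-excised, captured on streptavidin beads and amplified by RT-PCR, in one round carried out in triplicate. Illumina sequencing of input and output libraries kept genotypes with ≥10 input reads and ≥1 read per output. Fitness is the base-2 logarithm of genotype enrichment relative to wild-type enrichment, from inverse-variance-weighted replicate averages.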", "values": [
      {"variant": "G47A C73A", "polymerase ribozyme fitness (log ratio)": -0.495},
      {"variant": "G47A G58A G60A C79U", "polymerase ribozyme fitness (log ratio)": -2.31},
      {"variant": "G47A U81G C82U C86G", "polymerase ribozyme fitness (log ratio)": -1.44},
      {"variant": "G47C C102U", "polymerase ribozyme fitness (log ratio)": -2.99},
      {"variant": "G47A C62A C70A", "polymerase ribozyme fitness (log ratio)": -4.43},
      {"variant": "G47A C72A C82G C88A", "polymerase ribozyme fitness (log ratio)": -2.25},
      {"variant": "G47A A50G", "polymerase ribozyme fitness (log ratio)": -1.37},
      {"variant": "G47A G113C G122A", "polymerase ribozyme fitness (log ratio)": -4.01},
      {"variant": "G47A G61C U81C C86A U129C", "polymerase ribozyme fitness (log ratio)": -4.11},
      {"variant": "G47C C73U C102U G127U", "polymerase ribozyme fitness (log ratio)": -5.08},
      {"variant": "A46U U112G", "polymerase ribozyme fitness (log ratio)": -1.08},
      {"variant": "A46U G93A", "polymerase ribozyme fitness (log ratio)": -1.93},
      {"variant": "G47C C85G", "polymerase ribozyme fitness (log ratio)": -2.21},
      {"variant": "G47A G58C G71U C79U U130C", "polymerase ribozyme fitness (log ratio)": -0.309},
      {"variant": "G47A C72U A83U", "polymerase ribozyme fitness (log ratio)": -1.18},
      {"variant": "G47A U131C", "polymerase ribozyme fitness (log ratio)": -1.16},
      {"variant": "A46U G113A", "polymerase ribozyme fitness (log ratio)": -1.78},
      {"variant": "G47C C72U C85A C99G G110A", "polymerase ribozyme fitness (log ratio)": -7.27},
      {"variant": "G47C C114U", "polymerase ribozyme fitness (log ratio)": -3.1},
      {"variant": "G47A C115A", "polymerase ribozyme fitness (log ratio)": -1.2},
      {"variant": "A46U G110C", "polymerase ribozyme fitness (log ratio)": -4.29},
      {"variant": "A46U G110U", "polymerase ribozyme fitness (log ratio)": -2.33},
      {"variant": "G47A G120A", "polymerase ribozyme fitness (log ratio)": -0.422},
      {"variant": "G47A U55G C85U", "polymerase ribozyme fitness (log ratio)": -1.22},
      {"variant": "G47A G60A C124G", "polymerase ribozyme fitness (log ratio)": 0.279},
      {"variant": "G47A A119U", "polymerase ribozyme fitness (log ratio)": -1.02},
      {"variant": "G47C G52C A68U U109A", "polymerase ribozyme fitness (log ratio)": -7.13},
      {"variant": "G47C C86G C124A", "polymerase ribozyme fitness (log ratio)": 1},
      {"variant": "G47A A50U C80A C88U A111G", "polymerase ribozyme fitness (log ratio)": -4.88},
      {"variant": "A46U U87A", "polymerase ribozyme fitness (log ratio)": -0.324},
      {"variant": "G47A A111U", "polymerase ribozyme fitness (log ratio)": -4.17},
      {"variant": "A46U U132A", "polymerase ribozyme fitness (log ratio)": -1.18},
      {"variant": "G47C A90G", "polymerase ribozyme fitness (log ratio)": -1.06},
      {"variant": "G47A C86A", "polymerase ribozyme fitness (log ratio)": -0.754},
      {"variant": "G47A C94G C101U", "polymerase ribozyme fitness (log ratio)": -2.16},
      {"variant": "A46U G61U A111G", "polymerase ribozyme fitness (log ratio)": -0.291},
      {"variant": "G47A", "polymerase ribozyme fitness (log ratio)": -0.989},
      {"variant": "G47C", "polymerase ribozyme fitness (log ratio)": -1.82},
      {"variant": "G47A G113U C114A A121G", "polymerase ribozyme fitness (log ratio)": -1.76},
      {"variant": "G47C A83U", "polymerase ribozyme fitness (log ratio)": -1.11},
      {"variant": "G47A C64U C98U", "polymerase ribozyme fitness (log ratio)": -2.79},
      {"variant": "G47A G71U", "polymerase ribozyme fitness (log ratio)": -0.472},
      {"variant": "G47A G71A", "polymerase ribozyme fitness (log ratio)": -2.02},
      {"variant": "G47A G60C G71U A119U", "polymerase ribozyme fitness (log ratio)": -6.29},
      {"variant": "G47C C56U C73U A105U", "polymerase ribozyme fitness (log ratio)": -4.05},
      {"variant": "G47A G61U G120U G127A", "polymerase ribozyme fitness (log ratio)": -0.871},
      {"variant": "G47C C79U G93U", "polymerase ribozyme fitness (log ratio)": -3.38},
      {"variant": "A46U G71A C85G G122A", "polymerase ribozyme fitness (log ratio)": -5.93},
      {"variant": "G47A C70A C82G", "polymerase ribozyme fitness (log ratio)": -2.41},
      {"variant": "A46U U78C", "polymerase ribozyme fitness (log ratio)": -1.07},
      {"variant": "G47A C56U U78A C124A U131A", "polymerase ribozyme fitness (log ratio)": 1.41},
      {"variant": "G47A U87A", "polymerase ribozyme fitness (log ratio)": -0.715},
      {"variant": "G47A C89A", "polymerase ribozyme fitness (log ratio)": -4.43},
      {"variant": "A46U U112A C123A", "polymerase ribozyme fitness (log ratio)": -1.26},
      {"variant": "G47C A121G", "polymerase ribozyme fitness (log ratio)": 0.606},
      {"variant": "G47A C56U U112A", "polymerase ribozyme fitness (log ratio)": 0.663},
      {"variant": "G47A G48C G52U C62G C79U", "polymerase ribozyme fitness (log ratio)": -5.83},
      {"variant": "G47A U87A U96A", "polymerase ribozyme fitness (log ratio)": -2.62},
      {"variant": "G47A C72G G113U G122A G127U", "polymerase ribozyme fitness (log ratio)": -4.96},
      {"variant": "G47C C94U", "polymerase ribozyme fitness (log ratio)": -1.71},
      {"variant": "A46U U59C C101U A121U", "polymerase ribozyme fitness (log ratio)": 0.445},
      {"variant": "G47A C49A G60C G128C", "polymerase ribozyme fitness (log ratio)": -4.7},
      {"variant": "G47A C85A G117C A121C", "polymerase ribozyme fitness (log ratio)": -5.39},
      {"variant": "G47A C101A", "polymerase ribozyme fitness (log ratio)": -1.93},
      {"variant": "G47A C101U", "polymerase ribozyme fitness (log ratio)": -1.23},
      {"variant": "G47A U55G C70A C82U", "polymerase ribozyme fitness (log ratio)": -1.41},
      {"variant": "G47A C88U C102U", "polymerase ribozyme fitness (log ratio)": -3.29},
      {"variant": "G47C G48U", "polymerase ribozyme fitness (log ratio)": -2.71},
      {"variant": "G47A C53G C73U C86U", "polymerase ribozyme fitness (log ratio)": -0.0372},
      {"variant": "A46U G120A G135A", "polymerase ribozyme fitness (log ratio)": -0.18},
      {"variant": "G47A C123G", "polymerase ribozyme fitness (log ratio)": 0.634},
      {"variant": "G47A G57U G69U G117A U133G", "polymerase ribozyme fitness (log ratio)": -1.83},
      {"variant": "G47A G48A", "polymerase ribozyme fitness (log ratio)": -1.62},
      {"variant": "G47A G48U", "polymerase ribozyme fitness (log ratio)": -1.13},
      {"variant": "A46U U55A A121G", "polymerase ribozyme fitness (log ratio)": 0.98},
      {"variant": "G47A A90G A103C G120C", "polymerase ribozyme fitness (log ratio)": -4.22},
      {"variant": "G47C C80U", "polymerase ribozyme fitness (log ratio)": -3.51},
      {"variant": "G47A C53G C85A C89A A91C C94A U116C G120C", "polymerase ribozyme fitness (log ratio)": -5.21},
      {"variant": "G47A U125A", "polymerase ribozyme fitness (log ratio)": -1.31},
      {"variant": "A46U G63U U96G", "polymerase ribozyme fitness (log ratio)": -2.43},
      {"variant": "A46U U81C A90G C114U", "polymerase ribozyme fitness (log ratio)": -3.58},
      {"variant": "G47C C98U C124G", "polymerase ribozyme fitness (log ratio)": -0.238},
      {"variant": "G47A C86A G113A", "polymerase ribozyme fitness (log ratio)": -2.16}
    ]}
  ]
}
